{
  "source": "paper PMC12636033",
  "about": "“Chemical Engineering of Transcription Factors Uncovered Cell-Permeable μMax Modulators”",
  "data": [
    {"biological_target": "WT Max (Homo sapiens, UniProt P61244-2 13-93, M65Nle, norleucine written as M; other non-natural residues written as X)", "sequence (P61244 other isoform, or with tags, fused parts or gaps M65Nle)": "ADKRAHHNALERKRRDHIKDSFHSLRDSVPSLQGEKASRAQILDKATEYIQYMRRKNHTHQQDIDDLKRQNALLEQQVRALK", "test": "PBM; 50-200 nM protein; PBS, 2% milk, BSA, salmon testes DNA, 0.02% Triton X-100", "conditions": "chain copies: 2; label: surface-attached array probe", "values": [
      {"binder": "dBr_Jan07_22655 (dsDNA) DNA 1: GCCCACCCACCGAAATCGTCAATAGGCCTCACAGAAGTCTGTGTTCCGTTGTCCGTGCTG DNA 2: CAGCACGGACAACGGAACACAGACTTCTGTGAGGCCTATTGACGATTTCGGTGGGTGGGC", "binding signal": "-0.54 robust z of log adjusted intensity (ours), mean of two arrays"},
      {"binder": "dBr_Jan07_03085 (dsDNA) DNA 1: TGTACGGGAGACCTTGCGGCGCCTACGAGCAACAACGTCTGTGTTCCGTTGTCCGTGCTG DNA 2: CAGCACGGACAACGGAACACAGACGTTGTTGCTCGTAGGCGCCGCAAGGTCTCCCGTACA", "binding signal": "-0.59 robust z of log adjusted intensity (ours), mean of two arrays"},
      {"binder": "dBr_Jan07_28323 (dsDNA) DNA 1: GGCTCAAGACAGATTGCAGCTTTGACAACCGAATTCGTCTGTGTTCCGTTGTCCGTGCTG DNA 2: CAGCACGGACAACGGAACACAGACGAATTCGGTTGTCAAAGCTGCAATCTGTCTTGAGCC", "binding signal": "-0.41 robust z of log adjusted intensity (ours), mean of two arrays"},
      {"binder": "dBr_Jan07_21945 (dsDNA) DNA 1: GCAGGGGTGTAGGACAACTCGGCGTCAGTGGGTAGTGTCTGTGTTCCGTTGTCCGTGCTG DNA 2: CAGCACGGACAACGGAACACAGACACTACCCACTGACGCCGAGTTGTCCTACACCCCTGC", "binding signal": "-0.45 robust z of log adjusted intensity (ours), mean of two arrays"},
      {"binder": "dBr_Jan07_30748 (dsDNA) DNA 1: CCGCAAGGAGCGCACTAGCATCTCCTCTCTTGGGCCGTCTGTGTTCCGTTGTCCGTGCTG DNA 2: CAGCACGGACAACGGAACACAGACGGCCCAAGAGAGGAGATGCTAGTGCGCTCCTTGCGG", "binding signal": "-0.64 robust z of log adjusted intensity (ours), mean of two arrays"},
      {"binder": "dBr_Jan07_11873 (dsDNA) DNA 1: CCAGAGTTCGTAGGCAAAAACCCGCGACGGTATGCCGTCTGTGTTCCGTTGTCCGTGCTG DNA 2: CAGCACGGACAACGGAACACAGACGGCATACCGTCGCGGGTTTTTGCCTACGAACTCTGG", "binding signal": "-0.41 robust z of log adjusted intensity (ours), mean of two arrays"},
      {"binder": "dBr_Jan07_40185 (dsDNA) DNA 1: AGAATCAAGGTGAGCGAGCAAGGCTTAAAATCCCGCGTCTGTGTTCCGTTGTCCGTGCTG DNA 2: CAGCACGGACAACGGAACACAGACGCGGGATTTTAAGCCTTGCTCGCTCACCTTGATTCT", "binding signal": "-0.61 robust z of log adjusted intensity (ours), mean of two arrays"},
      {"binder": "dBr_Jan07_13143 (dsDNA) DNA 1: AGCTGTTGGTGCATCCTATGTCGAAGACTGGCGGCGGTCTGTGTTCCGTTGTCCGTGCTG DNA 2: CAGCACGGACAACGGAACACAGACCGCCGCCAGTCTTCGACATAGGATGCACCAACAGCT", "binding signal": "-0.67 robust z of log adjusted intensity (ours), mean of two arrays"},
      {"binder": "dBr_Jan07_00680 (dsDNA) DNA 1: ACACCAGCGCGTCAGGAGTTGTGTGAACCCACACCCGTCTGTGTTCCGTTGTCCGTGCTG DNA 2: CAGCACGGACAACGGAACACAGACGGGTGTGGGTTCACACAACTCCTGACGCGCTGGTGT", "binding signal": "-0.81 robust z of log adjusted intensity (ours), mean of two arrays"},
      {"binder": "dBr_Jan07_07252 (dsDNA) DNA 1: ATCCTGCCGCTTTCAATCGCCGGACAGCGATCGACAGTCTGTGTTCCGTTGTCCGTGCTG DNA 2: CAGCACGGACAACGGAACACAGACTGTCGATCGCTGTCCGGCGATTGAAAGCGGCAGGAT", "binding signal": "-0.55 robust z of log adjusted intensity (ours), mean of two arrays"},
      {"binder": "dBr_Jan07_33770 (dsDNA) DNA 1: GCGACCCTTCCACGTGCGTGTGTTAATGAGCGCATTGTCTGTGTTCCGTTGTCCGTGCTG DNA 2: CAGCACGGACAACGGAACACAGACAATGCGCTCATTAACACACGCACGTGGAAGGGTCGC", "binding signal": "4.84 robust z of log adjusted intensity (ours), mean of two arrays"},
      {"binder": "dBr_Jan07_40232 (dsDNA) DNA 1: TCGCGGAGACACCGCACTACGAGTGGCGAGAAGACCGTCTGTGTTCCGTTGTCCGTGCTG DNA 2: CAGCACGGACAACGGAACACAGACGGTCTTCTCGCCACTCGTAGTGCGGTGTCTCCGCGA", "binding signal": "-0.86 robust z of log adjusted intensity (ours), mean of two arrays"},
      {"binder": "dBr_Jan07_30609 (dsDNA) DNA 1: CGGAAGTCAGATAAAAGGTGGTATCGCGGCTTTAAAGTCTGTGTTCCGTTGTCCGTGCTG DNA 2: CAGCACGGACAACGGAACACAGACTTTAAAGCCGCGATACCACCTTTTATCTGACTTCCG", "binding signal": "-0.46 robust z of log adjusted intensity (ours), mean of two arrays"},
      {"binder": "dBr_Jan07_34791 (dsDNA) DNA 1: GACTTGCCTACTACGCCAGAATTAGCTAGTTGGGTAGTCTGTGTTCCGTTGTCCGTGCTG DNA 2: CAGCACGGACAACGGAACACAGACTACCCAACTAGCTAATTCTGGCGTAGTAGGCAAGTC", "binding signal": "-0.49 robust z of log adjusted intensity (ours), mean of two arrays"},
      {"binder": "dBr_Jan07_18594 (dsDNA) DNA 1: CCAACATCTAAGACCCTGGTAGGGCCTTTCCGACCCGTCTGTGTTCCGTTGTCCGTGCTG DNA 2: CAGCACGGACAACGGAACACAGACGGGTCGGAAAGGCCCTACCAGGGTCTTAGATGTTGG", "binding signal": "-0.86 robust z of log adjusted intensity (ours), mean of two arrays"},
      {"binder": "dBr_Jan07_31951 (dsDNA) DNA 1: CATGAGAATCGGCCCGGGTTACGTTCGCGGTACAATGTCTGTGTTCCGTTGTCCGTGCTG DNA 2: CAGCACGGACAACGGAACACAGACATTGTACCGCGAACGTAACCCGGGCCGATTCTCATG", "binding signal": "-0.54 robust z of log adjusted intensity (ours), mean of two arrays"},
      {"binder": "dBr_Jan07_08921 (dsDNA) DNA 1: CAGACAAAGTCACTGGGCGAGCATGAACCGTTTGCCGTCTGTGTTCCGTTGTCCGTGCTG DNA 2: CAGCACGGACAACGGAACACAGACGGCAAACGGTTCATGCTCGCCCAGTGACTTTGTCTG", "binding signal": "-0.81 robust z of log adjusted intensity (ours), mean of two arrays"},
      {"binder": "dBr_Jan07_36343 (dsDNA) DNA 1: ATCGGTTAAAGTAACTATATTGGGCTTATCGGACCAGTCTGTGTTCCGTTGTCCGTGCTG DNA 2: CAGCACGGACAACGGAACACAGACTGGTCCGATAAGCCCAATATAGTTACTTTAACCGAT", "binding signal": "-0.56 robust z of log adjusted intensity (ours), mean of two arrays"},
      {"binder": "dBr_Jan07_18521 (dsDNA) DNA 1: ACCAATTAGAACGTATCTATGGAGCTTGCCCGATCGGTCTGTGTTCCGTTGTCCGTGCTG DNA 2: CAGCACGGACAACGGAACACAGACCGATCGGGCAAGCTCCATAGATACGTTCTAATTGGT", "binding signal": "-0.67 robust z of log adjusted intensity (ours), mean of two arrays"},
      {"binder": "dBr_Jan07_23776 (dsDNA) DNA 1: CAGCCGCGGCGCCTCTAGCAATCAGGAGCGTCGGTAGTCTGTGTTCCGTTGTCCGTGCTG DNA 2: CAGCACGGACAACGGAACACAGACTACCGACGCTCCTGATTGCTAGAGGCGCCGCGGCTG", "binding signal": "-0.83 robust z of log adjusted intensity (ours), mean of two arrays"},
      {"binder": "dBr_Jan07_14635 (dsDNA) DNA 1: CCTAGAATTCCAACATGACTGTCAACTTGGGAATCTGTCTGTGTTCCGTTGTCCGTGCTG DNA 2: CAGCACGGACAACGGAACACAGACAGATTCCCAAGTTGACAGTCATGTTGGAATTCTAGG", "binding signal": "-0.81 robust z of log adjusted intensity (ours), mean of two arrays"},
      {"binder": "dBr_Jan07_28571 (dsDNA) DNA 1: TCGTTCTTATTTTGGCACGTGCACCCGCTTTGCTCAGTCTGTGTTCCGTTGTCCGTGCTG DNA 2: CAGCACGGACAACGGAACACAGACTGAGCAAAGCGGGTGCACGTGCCAAAATAAGAACGA", "binding signal": "5.15 robust z of log adjusted intensity (ours), mean of two arrays"},
      {"binder": "dBr_Jan07_00062 (dsDNA) DNA 1: TGGTGACCTGAGAGGCCGGTTGCTTCAGCCTACAACGTCTGTGTTCCGTTGTCCGTGCTG DNA 2: CAGCACGGACAACGGAACACAGACGTTGTAGGCTGAAGCAACCGGCCTCTCAGGTCACCA", "binding signal": "-0.8 robust z of log adjusted intensity (ours), mean of two arrays"},
      {"binder": "dBr_Jan07_22649 (dsDNA) DNA 1: TTACATACCAGGACTTATCGCATAGGTAGGCTGAGAGTCTGTGTTCCGTTGTCCGTGCTG DNA 2: CAGCACGGACAACGGAACACAGACTCTCAGCCTACCTATGCGATAAGTCCTGGTATGTAA", "binding signal": "-0.77 robust z of log adjusted intensity (ours), mean of two arrays"}
    ]}
  ]
}
